In patent US20260258141A1 (BIOCYTOGEN PHARMACEUTICALS BEIJING, published 2026):

B1: Teprotumumab analog (antibody, V domains shown)
VH: QVELVESGGGVVQPGRSQRLSCAASGFTFSSYGMHWVRQAPGKGLEWVAIIWFDGSSTYYADSVRGRFTISRDNSKNTLYLQMNSLRAEDTAVYFCARELGRRYFDLWGRGTLVSVSS
VL: EIVLTQSPATLSLSPGERATLSCRASQSVSSYLAWYQQKPGQAPRLLIYDASKRATGIPARFSGSGSGTDFTLTISSLEPEDFAVYYCQQRSKWPPWTFGQGTKVESKR
notes: also called positive control

Experiments:
[1] = target: human IGF1R (insulin-like growth factor 1 receptor) on cells (human) (UniProt P08069); test: flow cytometry on CHO-S-hIGF1R cells, antibody 20 µg/mL
human IGF1R (insulin-like growth factor 1 receptor) on cells (human), sequence (P08069 31-1367 limits assumed): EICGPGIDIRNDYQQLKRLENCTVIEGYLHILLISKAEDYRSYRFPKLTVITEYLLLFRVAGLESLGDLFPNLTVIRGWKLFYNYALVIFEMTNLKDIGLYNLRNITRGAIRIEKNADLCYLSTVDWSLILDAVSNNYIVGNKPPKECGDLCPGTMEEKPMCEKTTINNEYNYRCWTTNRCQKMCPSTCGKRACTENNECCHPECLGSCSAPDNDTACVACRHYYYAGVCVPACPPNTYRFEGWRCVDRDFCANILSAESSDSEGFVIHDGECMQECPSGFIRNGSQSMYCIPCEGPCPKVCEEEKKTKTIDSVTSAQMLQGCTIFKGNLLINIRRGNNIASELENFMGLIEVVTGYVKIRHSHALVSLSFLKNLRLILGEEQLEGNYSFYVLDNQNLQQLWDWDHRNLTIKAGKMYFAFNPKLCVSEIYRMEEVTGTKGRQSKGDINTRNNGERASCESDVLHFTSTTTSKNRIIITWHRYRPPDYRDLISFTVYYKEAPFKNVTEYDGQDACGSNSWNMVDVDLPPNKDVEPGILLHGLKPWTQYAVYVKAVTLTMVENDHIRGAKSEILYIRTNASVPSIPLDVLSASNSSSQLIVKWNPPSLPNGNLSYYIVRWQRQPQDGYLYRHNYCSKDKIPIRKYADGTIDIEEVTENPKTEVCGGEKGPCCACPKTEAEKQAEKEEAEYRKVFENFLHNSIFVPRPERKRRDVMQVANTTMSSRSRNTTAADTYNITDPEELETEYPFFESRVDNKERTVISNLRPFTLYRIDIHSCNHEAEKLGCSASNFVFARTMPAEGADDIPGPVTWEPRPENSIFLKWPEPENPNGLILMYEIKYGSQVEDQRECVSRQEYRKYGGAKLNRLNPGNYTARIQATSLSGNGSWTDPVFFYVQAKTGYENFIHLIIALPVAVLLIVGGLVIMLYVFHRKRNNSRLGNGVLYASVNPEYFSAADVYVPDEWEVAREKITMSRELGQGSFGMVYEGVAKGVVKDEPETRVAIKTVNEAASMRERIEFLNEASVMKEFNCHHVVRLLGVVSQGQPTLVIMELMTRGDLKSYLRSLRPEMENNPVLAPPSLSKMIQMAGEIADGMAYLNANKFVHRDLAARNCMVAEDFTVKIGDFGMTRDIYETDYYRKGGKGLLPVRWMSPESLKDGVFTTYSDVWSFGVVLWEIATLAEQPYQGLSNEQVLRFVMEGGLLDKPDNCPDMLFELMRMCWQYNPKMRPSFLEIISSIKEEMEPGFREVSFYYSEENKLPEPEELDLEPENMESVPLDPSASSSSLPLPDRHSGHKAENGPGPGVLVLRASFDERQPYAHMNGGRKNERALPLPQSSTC

[2] = target: cynomolgus monkey IGF1R on cells (cynomolgus monkey); test: flow cytometry on CHO-S-fasIGF1R cells, antibody 20 µg/mL
cynomolgus monkey IGF1R on cells (cynomolgus monkey), sequence (P08069 other isoform, or with tags, fused parts or gaps limits assumed): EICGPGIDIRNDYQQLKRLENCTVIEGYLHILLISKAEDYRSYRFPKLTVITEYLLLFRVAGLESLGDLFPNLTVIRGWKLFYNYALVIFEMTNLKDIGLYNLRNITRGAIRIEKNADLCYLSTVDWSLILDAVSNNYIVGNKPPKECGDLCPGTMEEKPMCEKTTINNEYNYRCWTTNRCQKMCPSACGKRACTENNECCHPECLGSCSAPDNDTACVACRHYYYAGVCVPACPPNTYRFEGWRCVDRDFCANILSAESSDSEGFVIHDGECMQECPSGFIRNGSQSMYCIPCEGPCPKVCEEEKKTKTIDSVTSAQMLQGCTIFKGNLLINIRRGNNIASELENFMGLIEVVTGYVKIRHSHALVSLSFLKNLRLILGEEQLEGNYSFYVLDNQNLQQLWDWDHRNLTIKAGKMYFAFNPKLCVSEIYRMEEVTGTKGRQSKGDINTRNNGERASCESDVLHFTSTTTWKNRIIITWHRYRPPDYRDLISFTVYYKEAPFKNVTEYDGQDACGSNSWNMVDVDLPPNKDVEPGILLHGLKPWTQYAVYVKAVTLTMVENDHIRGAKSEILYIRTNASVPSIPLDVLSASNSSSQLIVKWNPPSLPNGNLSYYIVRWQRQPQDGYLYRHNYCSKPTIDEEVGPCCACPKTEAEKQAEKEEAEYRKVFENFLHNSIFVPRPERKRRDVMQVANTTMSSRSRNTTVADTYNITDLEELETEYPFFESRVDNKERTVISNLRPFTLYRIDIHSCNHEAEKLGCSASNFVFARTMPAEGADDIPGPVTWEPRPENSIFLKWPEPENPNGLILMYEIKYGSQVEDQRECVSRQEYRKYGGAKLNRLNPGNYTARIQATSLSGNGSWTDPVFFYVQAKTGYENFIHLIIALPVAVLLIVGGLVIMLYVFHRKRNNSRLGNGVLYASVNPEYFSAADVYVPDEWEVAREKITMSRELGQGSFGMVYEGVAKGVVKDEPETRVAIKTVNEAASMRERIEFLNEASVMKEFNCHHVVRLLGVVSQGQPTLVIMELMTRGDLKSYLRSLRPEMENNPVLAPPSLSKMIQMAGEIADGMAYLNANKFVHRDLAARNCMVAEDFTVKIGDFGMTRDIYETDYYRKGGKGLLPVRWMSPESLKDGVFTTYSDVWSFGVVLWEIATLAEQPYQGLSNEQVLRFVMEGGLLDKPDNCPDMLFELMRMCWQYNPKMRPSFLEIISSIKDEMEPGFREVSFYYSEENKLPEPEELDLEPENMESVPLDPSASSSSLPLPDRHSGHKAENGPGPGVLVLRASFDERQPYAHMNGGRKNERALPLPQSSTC

[3] = target: T1, human insulin receptor INSR on cells (human, UniProt P06213 28-1382); test: flow cytometry on CHO-S-hINSR cells, antibody 20 µg/mL
T1 construct: Expressed on CHO-S cells; also called hINSR; CHO-S-hINSR cells
T1 sequence (P06213 other isoform, or with tags, fused parts or gaps limits assumed): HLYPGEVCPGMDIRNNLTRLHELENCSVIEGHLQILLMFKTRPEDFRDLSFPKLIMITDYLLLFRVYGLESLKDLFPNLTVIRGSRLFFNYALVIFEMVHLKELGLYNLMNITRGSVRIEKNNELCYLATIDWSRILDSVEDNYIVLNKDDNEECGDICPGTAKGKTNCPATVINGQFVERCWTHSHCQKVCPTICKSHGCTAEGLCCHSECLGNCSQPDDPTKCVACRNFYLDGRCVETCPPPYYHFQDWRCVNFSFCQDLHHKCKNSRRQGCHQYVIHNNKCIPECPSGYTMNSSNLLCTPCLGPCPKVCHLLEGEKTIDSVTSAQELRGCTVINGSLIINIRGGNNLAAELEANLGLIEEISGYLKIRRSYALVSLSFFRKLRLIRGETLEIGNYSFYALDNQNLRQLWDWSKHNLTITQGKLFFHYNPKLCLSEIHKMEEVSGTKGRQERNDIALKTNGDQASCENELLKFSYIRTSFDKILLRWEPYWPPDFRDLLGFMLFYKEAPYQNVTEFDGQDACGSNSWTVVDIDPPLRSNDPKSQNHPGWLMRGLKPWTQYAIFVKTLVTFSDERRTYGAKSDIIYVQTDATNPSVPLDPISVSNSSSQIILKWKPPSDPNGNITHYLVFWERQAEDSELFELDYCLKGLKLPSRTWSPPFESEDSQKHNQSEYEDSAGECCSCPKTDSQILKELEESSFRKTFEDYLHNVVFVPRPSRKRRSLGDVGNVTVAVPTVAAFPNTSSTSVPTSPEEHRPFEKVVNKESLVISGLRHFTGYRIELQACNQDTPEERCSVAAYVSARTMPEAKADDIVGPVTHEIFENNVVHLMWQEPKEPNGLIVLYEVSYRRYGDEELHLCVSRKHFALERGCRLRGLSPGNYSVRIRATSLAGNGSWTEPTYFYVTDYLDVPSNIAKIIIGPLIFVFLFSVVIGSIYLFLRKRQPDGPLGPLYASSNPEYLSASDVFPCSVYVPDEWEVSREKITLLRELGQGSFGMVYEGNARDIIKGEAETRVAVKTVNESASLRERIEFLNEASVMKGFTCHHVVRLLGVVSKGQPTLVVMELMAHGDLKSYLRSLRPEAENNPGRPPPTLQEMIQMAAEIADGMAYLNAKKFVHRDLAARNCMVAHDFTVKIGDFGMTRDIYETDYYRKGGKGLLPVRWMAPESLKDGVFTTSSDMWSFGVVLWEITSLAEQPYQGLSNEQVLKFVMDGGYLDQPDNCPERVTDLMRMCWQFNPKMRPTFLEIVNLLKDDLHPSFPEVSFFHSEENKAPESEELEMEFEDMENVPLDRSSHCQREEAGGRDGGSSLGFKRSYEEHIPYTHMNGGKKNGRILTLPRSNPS
Experimental: INSR (insulin receptor) and IGF1R are both members of the superfamily of receptor tyrosine kinases (RTKs). The binding activity of anti-IGF1R antibodies to human IGF1R, human INSR and monkey IGF1R was verified by flow cytometry. Briefly, CHO-S-hIGF1R cells (expressing human IGF1R (SEQ ID NO: 45), CHO-S-fasIGF1R cells (expressing cynomolgus monkey IGF1R (SEQ ID NO: 46) and CHO-S-hINSR (expressing SEQ ID NO: 47) were plated in a 96-well plate at a density of 2×10⁵ cells/well respectively. Purified anti-IGF1R antibody with a concentration of 20 μg/mL was added to each well and was incubated at 4° C. for 30 minutes. Then, after one wash with PBS, the cells were incubated with the secondary antibody Alexa Fluor® 647 anti-human IgG Fcγ (Jackson ImmunoResearch Laboratories, Inc., Cat #: 109-606-170) at 4° C. for 15 minutes before flow cytometry analysis. Human IgG1 was used as ISO control.

Molecule | Percentage of positive cells [1] [%] | Percentage of positive cells [2] [%] | Percentage of positive cells [3] [%]
Human IgG1 ISO control (antibody) | 0.7 | 0.3 | 0.4
B1 | – | – | 1.5
